Measured values from the supplement of paper PMC12764529.
± gives the half width of the 95% confidence interval.

What was measured:
[1] = folding stability dG unfold (combined trypsin and chymotrypsin); higher = more stable
Method in brief: (§1)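 Designed mini-proteins with no cysteine and under 80 residues were kept only if AlphaFold2 dimer inter-PAE was above 15. In a PA-tagged cDNA display construct, they were digested with trypsin and chymotrypsin and then sequenced. K50 was inferred by Bayesian fitting of counts, and unfolding free energy was derived per protease or combined against a sequence-predicted unfolded-state K50 and a shared folded-state K50.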

[2] = folding stability dG unfold from trypsin proteolysis; higher = more stable
Method in brief: as §1

[3] = folding stability dG unfold from chymotrypsin proteolysis; higher = more stable
Method in brief: as §1

| Sequence | folding stability dG unfold [1] [kcal/mol] | folding stability dG unfold [2] [kcal/mol] | folding stability dG unfold [3] [kcal/mol] |
| --- | --- | --- | --- |
| SAGGSAGGSAGGGMAITTRPGSSEVSTTPVPSDVTASTTTPLASGEPVEVTYERVGDPTLSAGGSAGGSAGG [r7_21_JUSTAS] | 0.0781 ± 0.079 | 0.405 ± 0.022 | -0.525 ± 0.16 |
| SAGGSAGGSAGGGMESKTTVTEEFSPEEVKTVTTVTTYPDGSVTETPENVKVPPGALAGSAGGSAGGSAGGS [r10_280_JUSTAS] | 1.49 ± 0.11 | 0.1 ± 0.053 | 1.92 ± 0.13 |
| SAGGSAGGSAGGGMSFKKRKGSISLTLRVTLTLPNGTPATLDIELELEEETVEPVYPELESAGGSAGGSAGG [r7_926_JUSTAS] | 4.19 ± 0.24 | 2.87 ± 0.086 | 4.76 ± 0.14 |
| SAGGSAGGSAGGGMSSAPPVTITPVSETTERLPNGTLVRTTTYAVDDGSTVTTTTVTPVSSAGGSAGGSAGG [r7_948_JUSTAS] | 0.602 ± 0.1 | -0.127 ± 0.099 | 0.952 ± 0.069 |
| SAGGSAGGSAGGGMSSVSLVKTSTITVGNGTVKLETLSYPDSSFVRTTLPNGKDVVEPLPSAGGSAGGSAGG [r7_655_JUSTAS] | -0.089 ± 0.13 | -0.561 ± 0.16 | 0.105 ± 0.1 |
| SAGGSAGGSAGGGMSTAVLKIDDKWVPVRIYPDSVVIEYPDGSTKTISLSEIPENLIELPSAGGSAGGSAGG [r7_748_JUSTAS] | 1.43 ± 0.15 | 2.2 ± 0.12 | 0.547 ± 0.07 |
| SAGGSAGGSAGGGMSVKVTVKDPVNGTTSVYELSVPPGVSNVVINVKTPDNSTVTKVTLESAGGSAGGSAGG [r7_687_JUSTAS] | 1.11 ± 0.11 | 0.754 ± 0.09 | 1.28 ± 0.034 |
| SAGGSAGGSAGGGMTTTKTEVSFSPAGGLVTTKSTERLPGTGELKEVTSVTPLASSGTTSAGGSAGGSAGGS [r10_296_JUSTAS] | 0.622 ± 0.081 | 0.0156 ± 0.034 | 0.846 ± 0.034 |
| SAGGSAGGSAGGGMTVEESVFLDPSGTRITVTTRVFDDGTVVTETEVTPLPPTPNPALASAGGSAGGSAGGS [r10_878_JUSTAS] | 1.11 ± 0.15 | 1.2 ± 0.035 | 1.08 ± 0.066 |
| SAGGSAGGSAGGGPDATPVTTTYVDLNLTPVSTETDPETGAVTVTYKLPGETITVTLPASAGGSAGGSAGGS [r10_962_JUSTAS] | 0.573 ± 0.22 | -0.629 ± 0.13 | 1.11 ± 0.42 |
| SAGGSAGGSAGGGPEDRVVPLFFEFDLPEDVVLEVPSDADVFVFRLPDRTLMVLLVDERESAGGSAGGSAGG [r7_584_TrMRF] | 2.51 ± 0.057 | 1.82 ± 0.051 | 2.88 ± 0.023 |
| SAGGSAGGSAGGGPSSMVTVETKEELLTLPNGEKLIKTTTTTKTPTATTTTTTVLPAELLSAGGSAGGSAGG [r7_682_JUSTAS] | 0.515 ± 0.2 | 0.0664 ± 0.063 | 0.561 ± 0.068 |
| SAGGSAGGSAGGGSMESVVLNVPIYEKTPDGSWRLVKELPILVPVDASPEVVEKKRKELSAGGSAGGSAGGS [r10_470_JUSTAS] | -0.481 ± 0.17 | -0.41 ± 0.13 | -0.822 ± 0.68 |
| SAGGSAGGSAGGGSMVTVPVTTESTTTVPPGAPAVEAAPVDPATATVSTTTSSTSLVASSAGGSAGGSAGGS [r10_82_JUSTAS] | 0.862 ± 0.092 | 1.22 ± 0.081 | 0.534 ± 0.029 |
| SAGGSAGGSAGGGSPIPTTTLTTVTYGSSSSLLSSAKGPSSVPYSLPSSLGSSVSTTVVGSAGGSAGGSAGG [r7_141_JUSTAS] | -0.34 ± 0.38 | -0.911 ± 0.3 | -0.13 ± 0.29 |
| SAGGSAGGSAGGGSSMITLERESEPGETFEFNFPGVSEVTVTEVIPGDGKVTVKVEVTSPSAGGSAGGSAGG [r7_292_JUSTAS] | 0.537 ± 0.11 | 0.782 ± 0.059 | 0.0882 ± 0.09 |
| SAGGSAGGSAGGGSSVITTTETDPANGLLTTTTTTINGSETVPSSTVSPVPPPPPPSTLSAGGSAGGSAGGS [r10_354_JUSTAS] | 1.11 ± 0.12 | 1.67 ± 0.14 | 0.0312 ± 0.094 |
| SAGGSAGGSAGGGSVTIEIEFEAKPGEKFTVTIKGFKKVEITEIYPFDGKVRIKVKVTPESAGGSAGGSAGG [r7_292_TrMRF] | 3.67 ± 0.13 | 3.18 ± 0.13 | 3.88 ± 0.13 |
| SAGGSAGGSAGGGVAFSSDTTETRIDTTDDDTIVITTTTYAPNPSSTTTTVTTVPPDVPLSAGGSAGGSAGG [r7_128_JUSTAS] | 0.75 ± 0.14 | 1.24 ± 0.044 | 0.0059 ± 0.23 |
| SAGGSAGGSAGGGYIEIDSVHLHPDGTVTRTRAVLEVDENGNVRVLSAETETVPLDDILGSAGGSAGGSAGG [r7_521_TrMRF] | 2.38 ± 0.12 | 2.28 ± 0.14 | 2.32 ± 0.043 |
| SAGGSAGGSAGGHMVMITITIPIKKGAEIKFGDWDIKVPPGEQIQITIMIPVPPPDDDKSAGGSAGGSAGGS [r10_949_TrROS] | 2.79 ± 0.3 | 2.91 ± 0.16 | 2.8 ± 0.21 |

| Sequence | folding stability dG unfold [1] [kcal/mol] | folding stability dG unfold [2] [kcal/mol] | folding stability dG unfold [3] [kcal/mol] |
| --- | --- | --- | --- |
| SAGGSAGGSAGGIAEALKAAFPDEGVEVVSIHPDGKVEVRVDGTPELREKVEKAVKELLSSAGGSAGGSAGG [r11_418_TrMRF] | 0.798 ± 0.18 | 1.08 ± 0.087 | 0.621 ± 0.067 |
| SAGGSAGGSAGGIEDMAEKNPDWKIVEPIEIEIPYYNPDGKWYEVEYTIFVIVPPGDEISAGGSAGGSAGGS [r10_0_TrROS] | 1.79 ± 0.23 | 1.46 ± 0.16 | 2.12 ± 0.075 |
| SAGGSAGGSAGGIGEGTPIERLIEGKPIPFYVDESTGKAYYTLPEDKKIETTIEDPEKVSAGGSAGGSAGGS [r10_1185_TrMRF] | 0.202 ± 0.15 | -0.377 ± 0.19 | 0.442 ± 0.22 |
| SAGGSAGGSAGGIKKGDKIKIVKVKVEKRYDKDGKLVEERIVSIEEEEIEVPSLEDLLKASAGGSAGGSAGG [r7_439_TrROS_Hall] | 0.654 ± 0.25 | 0.732 ± 0.14 | 0.739 ± 0.06 |
| SAGGSAGGSAGGIKPGEKPVYKVKIYNEETGEELEVEFKTLEELEKLKIPGVKKIEVEKVSAGGSAGGSAGG [r7_793_TrROS_Hall] | 1.2 ± 0.2 | 0.786 ± 0.16 | 1.35 ± 0.045 |
| SAGGSAGGSAGGISPSANVKLVAVDPERGLVVAVAKDPNSGSVSVVVFDANGNSSILPASAGGSAGGSAGGS [r10_450_TrMRF] | 0.267 ± 0.043 | -0.317 ± 0.079 | 0.495 ± 0.029 |
| SAGGSAGGSAGGITPEYVERARKEAQDQYPPGKEREIIIRNPDNGKEITIRYTPDKIEIMSAGGSAGGSAGG [r7_45_TrROS] | -0.147 ± 0.24 | 0.0182 ± 0.12 | -0.289 ± 0.16 |
| SAGGSAGGSAGGKAKIVDVKIEKEGNTVTIEVKIEVDGKLIATAKVRFTGPDGKLEIEIESAGGSAGGSAGG [r7_133_TrROS_Hall] | 3.15 ± 0.15 | 3.25 ± 0.16 | 2.9 ± 0.27 |
| SAGGSAGGSAGGKDPYLALKTVRVRLVRDYLLGDKPVKTELIEEADVPVLIVFEPEELLSAGGSAGGSAGGS [r10_492_TrMRF] | 0.441 ± 0.053 | 0.0714 ± 0.069 | 0.536 ± 0.086 |
| SAGGSAGGSAGGKDVRITVSPNNMRISIWKRDPNDGKWKPIGTIPMPPNDPDKALDQLKSAGGSAGGSAGGS [r10_275_TrROS] | -0.446 ± 0.18 | -0.216 ± 0.18 | -1.13 ± 0.91 |
| SAGGSAGGSAGGKEEEARKLAEELAKELGLEIVEVKVERTEKEVKVTIRIKKDGKEIEFSAGGSAGGSAGGS [r10_161_TrROS_Hall] | 1.29 ± 0.12 | 1.09 ± 0.048 | 1.36 ± 0.025 |
| SAGGSAGGSAGGKEITIMMPSPEAIKKLLPPGWKITNIEPIGRDPEDGYPYYMITFKPDSAGGSAGGSAGGS [r10_256_TrROS] | 1.3 ± 0.057 | 1.43 ± 0.018 | 1.11 ± 0.042 |
| SAGGSAGGSAGGKEKKELYVVIKVDKNMTPEEIAEKLKKEFNVDKVEVEVREDGYLVVKVSAGGSAGGSAGG [r7_273_TrROS_Hall] | 1.62 ± 0.19 | 1.03 ± 0.098 | 1.74 ± 0.084 |
| SAGGSAGGSAGGKIIVYNPETGKPEEVSPEDLEEIIKNTPGPLILKVGEGEIELNAKDISAGGSAGGSAGGS [r10_839_TrMRF] | 0.828 ± 0.12 | 0.807 ± 0.051 | 0.862 ± 0.067 |
| SAGGSAGGSAGGKIKDAEIVSVEYDPETGVLYMEVKLEDGSTYRIRFDLKTNKLTIEPVSAGGSAGGSAGGS [r10_674_TrROS_Hall] | 4.56 ± 0.3 | 3.29 ± 0.36 | 4.91 ± 0.2 |
| SAGGSAGGSAGGKIKLTVEKTEDGYLRVTAEDEDTKETVVITLPKGTTLEEALKLLKELSAGGSAGGSAGGS [r10_825_TrROS_Hall] | 3.19 ± 0.17 | 3.14 ± 0.11 | 3.08 ± 0.14 |
| SAGGSAGGSAGGKKIHLFMPKEVAEKFAKELEKLGIDSKEVEIEFHEVDIPPSLPPELKSAGGSAGGSAGGS [r10_602_TrMRF] | -0.0833 ± 0.27 | -0.0238 ± 0.15 | -0.594 ± 0.48 |
| SAGGSAGGSAGGKKIIKVNLRIYDPVNPKVTVLPIEAPFDEIIKIAKEIAAPDQVVEISSAGGSAGGSAGGS [r10_397_TrMRF] | -0.654 ± 0.16 | -0.844 ± 0.16 | -0.506 ± 0.097 |
| SAGGSAGGSAGGKKIKILVKIKDLKKLKGLKPGDLALIEIEVEVKPEKKTEKKYTYKKKSAGGSAGGSAGGS [r10_1233_TrROS_Hall] | 0.693 ± 0.21 | 0.432 ± 0.23 | 0.908 ± 0.29 |
| SAGGSAGGSAGGKKKYIVVKVKVEVDENGNVTITLPNGKKITIPKEKVEVKPDGYLVIKLSAGGSAGGSAGG [r7_684_TrROS_Hall] | 2.05 ± 0.087 | 1.98 ± 0.07 | 2.05 ± 0.028 |
| SAGGSAGGSAGGKKTITVTVKINGKTYRVEIKYDEKTKKVTIKIEVNGKKYEFEFELKDSAGGSAGGSAGGS [r10_438_TrROS_Hall] | 4.54 ± 0.36 | 4.73 ± 0.96 | 4.42 ± 0.25 |
